Measured values taken from the supplement of paper PMC6755084.

B1: minF1; a variant is named by its letters at N, in order (parent)
chain: GAGACCGCAACTGAAAAGTTGTTNNNNAANNNNGGNTNNATTTCTGCACGTAGAAGCAAAAGGC

Variants of: B1
Assay: fraction ligated after 30 min (ligated reads / total reads); higher = more ligase activity
Settings: with F1*subA RNA substrate (template-directed ligation), 42 °C
Method: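 Chip-synthesised pool of minF1 ligase ribozyme variants (single and double substitutions, single to quadruple deletions, bulge and P2 designed variants) was transcribed with T7 and reacted as a pool with excess substrate F1*subA for 30 min at 42 C in 50 mM EPPS pH 8.5, 25 mM MgCl2. Ligated and unligated RNAs were separated by PAGE, barcoded by RT and deep sequenced; fraction ligated = ligated reads / total reads, relative activity = FL / FL of wild-type minF1 (0.76); sequencing FL correlated with PAGE (R2 = 0.98). Sequences are the DNA template of the ribozyme.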

Variant | fraction ligated
ATAGATGGGTT G34A G35T T37G A40G | 0.00103
ATAGATGGGTT G34A T37G | 0.000508
ATAGATGGGTT G34A T37G A40G | 0
ATAGATGGGTT G34T T37G | 0.00071
ATAGATGGGTT G34T T37G A40G | 0.000495
ATAGATGGTGA | 0.00397
ATAGATGTGTA | 0.00402
ATAGATGTGTG | 0.00629
ATAGATGTTGA | 0.00174
ATAGATTGTGA | 0.00167
ATAGGATGTGA | 0.00396
ATAGGATGTGA A28T A29G | 0.0105
ATAGGATGTGA A29G | 0.00633
ATAGGATGTGA A29T | 0.00303
ATAGGGAGTGA | 0.00238
ATAGGGAGTGA A29T | 0.00713
ATAGGGATGTA | 0.0024
ATAGGGATGTA A29T | 0.00166
ATAGGGATGTG | 0.00618
ATAGGGATGTG A29T | 0.012
ATAGGGATTGA | 0.00436
ATAGGGATTGA A29T | 0.0025
ATAGGGTGTGA | 0.00288
ATAGGGTGTGA A29T | 0.00231

Variant | fraction ligated
ATAGTATGTGA | 0.00386
ATAGTGAGTGA | 0.00282
ATAGTGATGTA | 0.00203
ATAGTGATGTG | 0.00732
ATAGTGATTGA | 0.00291
ATAGTGGAGTA | 0.00346
ATAGTGGAGTA G34T | 0.00645
ATAGTGGAGTG | 0.00518
ATAGTGGAGTG G34T | 0.0109
ATAGTGGAGTT G34T T37G | 0.00164
ATAGTGGAGTT G34T T37G A40G | 0.000271
ATAGTGGATGA | 0.00362
ATAGTGGGTGA | 0.00334
ATAGTGGTGTA | 0.0012
ATAGTGGTGTG | 0.00637
ATAGTGGTTGA | 0.0023
ATAGTGTGTGA | 0.0025
ATCAAAAGTGA A28G | 0.00266
ATCAAAATGTA A28G | 0.0033
ATCAAAATGTG A28G | 0.00629
ATCAAAATTGA A28G | 0.00208
ATCAAAGAGTA A28G | 0.0017
ATCAAAGAGTA A28G G34T | 0.00276
ATCAAAGAGTG A28G | 0.00384

Variant | fraction ligated
ATCAAAGAGTG A28G G34T | 0.00562
ATCAAAGAGTT A28G G34T T37G | 0.00139
ATCAAAGAGTT A28G G34T T37G A40G | 0.00143
ATCAAAGATGA A28G | 0.00211
ATCAAAGGGTA A28G | 0.00291
ATCAAAGGGTA A28G G34A | 0.00347
ATCAAAGGGTA A28G G34T | 0.00211
ATCAAAGGGTG A28G | 0.0051
ATCAAAGGGTG A28G G34A | 0.00764
ATCAAAGGGTG A28G G34T | 0.00328
ATCAAAGGGTT A28G G34A G35T T37G | 0.00185
ATCAAAGGGTT A28G G34A T37G | 0.00203
ATCAAAGGGTT A28G G34A T37G A40G | 0.000889
ATCAAAGGGTT A28G G34T T37G | 0.00171
ATCAAAGGGTT A28G G34T T37G A40G | 0.000216
ATCAAAGGTGA A28G | 0.00196
ATCAAAGTGTA A28G | 0.00412
ATCAAAGTGTG A28G | 0.00272
ATCAAAGTTGA A28G | 0.0038
ATCAAATAGTA A28G | 0.00232
ATCAAATAGTA A28G G34T | 0.00133
ATCAAATAGTG A28G | 0.00674
ATCAAATAGTG A28G G34T | 0.0037
ATCAAATAGTT A28G G34T T37G | 0.00135

Variant | fraction ligated
ATCAAATAGTT A28G G34T T37G A40G | 0.0013
ATCAAATATGA A28G | 0.00291
ATCAAATGGGT A28G G35A T37G A40T | 0.00114
ATCAAATGGGT A28G G35T T37G A40T | 0.00169
ATCAAATGGTA A28G | 0.0012
ATCAAATGGTA A28G G34A | 0.00267
ATCAAATGGTA A28G G34T | 0.00212
ATCAAATGGTG A28G | 0.00534
ATCAAATGGTG A28G G34A | 0.00551
ATCAAATGGTG A28G G34T | 0.0032
ATCAAATGGTT A28G G34A G35T T37G | 0.00118
ATCAAATGGTT A28G G34A T37G | 0.0014
ATCAAATGGTT A28G G34A T37G A40G | 0.000551
ATCAAATGGTT A28G G34T T37G | 0.000947
ATCAAATGGTT A28G G34T T37G A40G | 0.000795
ATCAAATGGTT A28G G35A T37G | 0.00104
ATCAAATGGTT A28G G35A T37G A40G | 0.00174
ATCAAATGGTT A28G G35T T37G | 0.00103
ATCAAATGGTT A28G G35T T37G A40G | 0.00187
ATCAAATGGTT A28G T37G | 0.00127
ATCAAATGGTT A28G T37G A40G | 0.0011
ATCAAATGTGA | 0.00252
ATCAAATGTGA A28G | 0.00482
ATCAAATGTGT A28G G35A T37G A40T | 0.000969

Variant | fraction ligated
ATCAAATTGTA A28G | 0.00076
ATCAAATTGTG A28G | 0.00512
ATCAAATTTGA A28G | 0.00721
ATCAAGAGTGA | 0.0037
ATCAAGAGTGA A28G | 0.00247
ATCAAGATGTA | 0.00295
ATCAAGATGTA A28G | 0.00207
ATCAAGATGTG | 0.0129
ATCAAGATGTG A28G | 0.0128
ATCAAGATTGA | 0.00249
ATCAAGATTGA A28G | 0.00251
ATCAAGGAGTA | 0.00502
ATCAAGGAGTA A28G | 0.00255
ATCAAGGAGTA A28G G34T | 0.00153
ATCAAGGAGTA G34T | 0.00413
ATCAAGGAGTG | 0.00548
ATCAAGGAGTG A28G | 0.00589
ATCAAGGAGTG A28G G34T | 0.00593
ATCAAGGAGTG G34T | 0.00633
ATCAAGGAGTT A28G G34T T37G | 0.00162
ATCAAGGAGTT A28G G34T T37G A40G | 0.000656
ATCAAGGAGTT G34T T37G | 0.00324
ATCAAGGAGTT G34T T37G A40G | 0.00198
ATCAAGGATGA | 0.000429

Variant | fraction ligated
ATCAAGGATGA A28G | 0.000468
ATCAAGGGTGA | 0.00247
ATCAAGGGTGA A28G | 0.00483
ATCAAGGTGTA | 0.00438
ATCAAGGTGTA A28G | 0.00466
ATCAAGGTGTG | 0.00687
ATCAAGGTGTG A28G | 0.0012
ATCAAGGTTGA | 0.00224
ATCAAGGTTGA A28G | 0.00202
ATCAAGTGTGA | 0.00229
ATCAAGTGTGA A28G | 0.00275
ATCAATAGTGA | 0.00321
ATCAATAGTGA A28G | 0.00213
ATCAATATGTA | 0.00288
ATCAATATGTA A28G | 0.00429
ATCAATATGTG | 0.00446
ATCAATATGTG A28G | 0.00686
ATCAATATTGA | 0.00211
ATCAATATTGA A28G | 0.00433
ATCAATGAGTA | 0.00236
ATCAATGAGTA A28G | 0.00241
ATCAATGAGTA A28G G34T | 0.00248
ATCAATGAGTA G34T | 0.0033
ATCAATGAGTG | 0.00492

Variant | fraction ligated
ATCAATGAGTG A28G | 0.00439
ATCAATGAGTG A28G G34T | 0.00581
ATCAATGAGTG G34T | 0.00509
ATCAATGAGTT A28G G34T T37G | 0.00246
ATCAATGAGTT A28G G34T T37G A40G | 0.000608
ATCAATGAGTT G34T T37G | 0.00278
ATCAATGAGTT G34T T37G A40G | 0.00152
ATCAATGATGA | 0.00478
ATCAATGATGA A28G | 0.000976
ATCAATGGGGT G34A G35T T37G A40T | 0.0016
ATCAATGGGTA | 0.00273
ATCAATGGGTA A28G | 0.000828
ATCAATGGGTA A28G G34A | 0.00228
ATCAATGGGTA A28G G34T | 0.00241
ATCAATGGGTA G34A | 0.00177
ATCAATGGGTA G34T | 0.0029
ATCAATGGGTG | 0.00492
ATCAATGGGTG A28G | 0.00414
ATCAATGGGTG A28G G34A | 0.00717
ATCAATGGGTG A28G G34T | 0.00456
ATCAATGGGTG G34A | 0.00542
ATCAATGGGTG G34T | 0.00622
ATCAATGGGTT A28G G34A G35T T37G | 0.00268
